# Reference: article PMC7935881
# Columns and labels:
# [1] = biological target: no-cys-DgkA (cysteine-free Escherichia coli diacylglycerol kinase) (Escherichia coli); assay: SDS-PAGE; DgkA refolded/reassembled in buffer (8 M urea, 0.2% SDS, 0.08% E. coli membrane total extracts, 0.96% OG, pH 7.8)
# [2] = biological target: no-cys-DgkA (cysteine-free Escherichia coli diacylglycerol kinase) (Escherichia coli); assay: solid-state NMR structure; MAS ssNMR, intra- and inter-monomer PRE distance restraints with CS-Rosetta; DgkA reconstituted in bilayers of E. coli membrane total extracts; 272 K
substance,measurement,setting,value
no-cys-DgkA (cysteine-free Escherichia coli diacylglycerol kinase) (enzyme),stoichiometry N,[1],3
same,stoichiometry N,[2],3
